Assay results reported in patent US20110281938A1 (BAXTER INTERNATIONAL, published 2011).

Target: T1, Full-length TFPI (recombinant human tissue factor pathway inhibitor, American Diagnostica, E. coli expressed) (human, UniProt P10646 29-304)
T1 construct: also called recombinant TFPI; human TFPI
T1 sequence: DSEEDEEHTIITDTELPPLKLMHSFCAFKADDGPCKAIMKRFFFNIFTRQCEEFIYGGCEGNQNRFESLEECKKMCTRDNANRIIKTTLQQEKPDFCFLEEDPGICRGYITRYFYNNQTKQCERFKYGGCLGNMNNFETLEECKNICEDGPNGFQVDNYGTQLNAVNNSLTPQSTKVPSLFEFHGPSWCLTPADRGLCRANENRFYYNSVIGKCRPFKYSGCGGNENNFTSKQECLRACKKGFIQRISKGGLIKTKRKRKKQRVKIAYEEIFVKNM
Assay: dot-blot (nitrocellulose filtration) binding competition: 10 nM TFPI, trace radiolabeled aptamer ARC17480 as the displaced ligand, FXa varied 2000-0.10 nM
Experimental: For these experiments, human TFPI at a final concentration of 10 nM (American Diagnostica, Stamford, Conn., catalog #4900PC) was incubated with trace amounts of radiolabeled ARC17480 and different concentrations of human FXa (Haematologic Technologies, Essex Junction, Vt. catalog #HCXA-0060) or ARC19499 (2000 nM-0.10 nM). A control was also carried out in the absence of TFPI in which trace amounts of radiolabeled ARC17480 was incubated with different concentrations of FXa (2000 nM-0.10 nM). The percentage of radiolabeled ARC17480 bound was plotted as a function of competitor concentration and fit to the equation y=(max/(1+x/IC₅₀))+int, where y=the percentage of radiolabeled ARC17480 bound, x=the concentration of competitor, max=the maximum radiolabeled ARC17480 bound, and int=the y-intercept, to generate an IC₅₀ value for binding-competition. […] FXa partially competes with ARC17480 for binding to TFPI, as evidenced by a plateau in the competition-binding curve at concentrations above ˜75 nM. In contrast, ARC19499 completely competes with radiolabeled ARC17480 for binding to TFPI.

B1: human FXa (Haematologic Technologies, catalog #HCXA-0060) (enzyme)
chain 1: ANSFLEEMKKGHLERECMEETCSYEEAREVFEDSDKTNEFWNKYKDGDQCETSPCQNQGKCKDGLGEYTCTCLEGFEGKNCELFTRKLCSLDNGDCDQFCHEEQNSVVCSCARGYTLADNGKACIPTGPYPCGKQTLER
chain 2: IVGGQECKDGECPWQALLINEENEGFCGGTILSEFYILTAAHCLYQAKRFKVRVGDRNTEQEEGGEAVHEVEVVIKHNRFTKETYDFDIAVLRLKTPITFRMNVAPACLPERDWAESTLMTQKTGIVSGFGRTHEKGRQSTRLKMLEVPYVDRNSCKLSSSFIITQNMFCAGYDTKQEDACQGDSGGPHVTRFKDTYFVTGIVSWGEGCARKGKYGIYTKVTAFLKWIDRSMKTRGLPKAKSHAPEVITSSPLK
notes: FXa is a two-chain protease; also called Factor Xa
IC50 (read off the curve): ~7 nM
